Experimental data: patent US20220106398A1 (IGM BIOSCIENCES, published 2022)
One block for each binder: values may come before it.

Assays:
[1] = target: T1, GITR on GITR/NFkB-luciferase reporter Jurkat cells (UniProt Q9Y5U5 26-241, limits assumed); test: cell-based or functional assay
T1 sequence (looked up): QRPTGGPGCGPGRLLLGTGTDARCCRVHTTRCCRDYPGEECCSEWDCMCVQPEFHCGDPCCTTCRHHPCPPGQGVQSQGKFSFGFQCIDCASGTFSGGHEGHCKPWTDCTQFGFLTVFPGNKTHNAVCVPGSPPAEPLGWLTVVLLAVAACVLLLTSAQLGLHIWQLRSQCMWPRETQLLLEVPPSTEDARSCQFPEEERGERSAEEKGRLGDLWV

[2] = target: T2, human GITR on HEK 293 cells (human, UniProt Q9Y5U5 26-241); test: flow cytometry on HEK 293 cells expressing human GITR
T2 construct: Bought cell line; also called GITR-expressing 293 cells; HEK 293 cells expressing human GITR (CrownBio, #C2011)
T2 sequence: T1 sequence (looked up)
Experimental: Cells were washed twice, then stained for 30 minutes at 4° C. with 5 ug/mL mouse anti-human kappa-ALEXA FLUOR® 647 secondary antibody (Southern Biotech #9230-31) diluted in FACS buffer. Cells were washed twice, resuspended in FACS Stain Buffer, and signal was acquired by flow cytometry.

- EC50 [1]: 0.34 µg/mL
- Max Fold activation [1]: 1.6 fold
B1: GITR-Mab-14 IgM/J* (antibody, not shown: a dimerising Fc or GST; large carriers)
heavy: EVQLLESGGGLVKPGGSLRLSCAASGFRFSVYWMSWVRQAPGKGLEWVSGISGSGGTTYYADSVKGRFTISRDDSKNTLYLQMNSLKTEDTAVYYCARVRRDGYNYNFDYWGQGTLVTVSS
light: DIQMTQSPSSLSASVGDRVTITCQASQDISNYLNWYQQKPGKAPKLLIFDASSLEAGVPSRFSGSGSGTDFTLTISSLQPEDFATYYCQQANSFPPTFGQGTEVEIK
chain: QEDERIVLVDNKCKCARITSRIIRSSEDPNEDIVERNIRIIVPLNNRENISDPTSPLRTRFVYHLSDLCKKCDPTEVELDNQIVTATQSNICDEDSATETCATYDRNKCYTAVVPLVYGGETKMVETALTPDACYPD

- EC50 [1]: 5 µg/mL
- Max Fold activation [1]: 1.3 fold
B2: GITR-Mab-3 IgM/J* (antibody, not shown: a dimerising Fc or GST; large carriers)
heavy: QVQLVQSGAEVKKPGASVKVSCKASGYTFTSYDINWVRQAPGQGLEWMGWISGYNGNTNYAQKFQGRVTMTRDTSTSTVYMELSSLRSEDTAVYYCARSHEYYYYYGMDVWGQGTLVTVSS
light: EIVMTQSPATLSVSPGERATLSCRASQSVSSSYLAWYQQKPGQAPRLLIYGASTRATGIPARFSGSGSGTEFTLTISSLQSEDFAVYYCQQYYTTPFTFGPGTKVDIK
chain: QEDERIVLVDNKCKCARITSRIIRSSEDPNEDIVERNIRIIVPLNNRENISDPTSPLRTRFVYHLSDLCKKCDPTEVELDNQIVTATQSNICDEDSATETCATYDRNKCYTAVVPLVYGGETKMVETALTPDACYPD

- binding result [2]: binds
B3: GITR-Mab-6 IgM/J* (antibody)
heavy: QVQLVQSGAEVKKPGASVKVSCKASGYAFTAYYLHWVRQAPGQGLEWMGWMNPNSGNTGYAQKFQGRVTMTRDTSTSTVYMELSSLRSEDTAVYYCAREGWGYYDGGFDPWGQGTLVTVSS
light: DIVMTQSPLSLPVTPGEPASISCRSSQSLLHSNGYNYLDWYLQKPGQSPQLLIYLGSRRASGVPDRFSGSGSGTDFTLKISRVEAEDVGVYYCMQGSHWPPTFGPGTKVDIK
chain: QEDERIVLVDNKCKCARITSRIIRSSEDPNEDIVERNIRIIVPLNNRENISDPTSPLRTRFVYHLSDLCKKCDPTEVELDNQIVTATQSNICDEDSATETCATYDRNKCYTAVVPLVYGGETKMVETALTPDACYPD
notes: IgM with variant J-chain J* (Y102A); not shown: IgM heavy chain constant region of proprietary vector; light chain constant region of proprietary vector (detected with anti-human kapp)
